In this data set the test system is Escherichia coli TOP10. Kind of data set: shrunken log2 fold change of peptide-encoding DNA abundance (4.5 h post-induction vs induction); higher = less antimicrobial activity (less host growth inhibition). To be noted: time post-induction: 4.5 h; library: site-saturation at positions 5, 18, 19, 20.
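Note: peptides expressed intracellularly from a pBAD plasmid library in pooled LB shake-flask culture, induced with 0.3% L-arabinose, DNA abundance read by NGS, three biological replicates, DESeq2 with apeglm shrinkage.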

Turning to RRIRPRPPRLPRPRPRPILDPRP, the “shrunken log2 fold change” value is -0.0669.

RRIRVRPPRLPRPRPRPNDAPRP: the “shrunken log2 fold change” value is -0.231.

In the case of RRIRCRPPRLPRPRPRPSYQPRP, the “shrunken log2 fold change” value is -0.923.

RRIRCRPPRLPRPRPRPFELPRP: the “shrunken log2 fold change” value was -0.0697.

Take RRIRNRPPRLPRPRPRPGTFPRP: the “shrunken log2 fold change” value was -0.281.

With RRIRARPPRLPRPRPRPPPLPRP, the “shrunken log2 fold change” value stood at 1.84.

With RRIRARPPRLPRPRPRPADYPRP, the “shrunken log2 fold change” value stood at 0.177.

For RRIRRRPPRLPRPRPRPEDYPRP, the “shrunken log2 fold change” value came out at 0.252.

Take RRIRHRPPRLPRPRPRPLGLPRP: the “shrunken log2 fold change” value stood at 0.393.

On to RRIRFRPPRLPRPRPRPEASPRP, for which the “shrunken log2 fold change” value came to 0.0218.

Regarding RRIRARPPRLPRPRPRPKPTPRP, the “shrunken log2 fold change” value was determined as 0.744.

With RRIRKRPPRLPRPRPRPIFEPRP, the “shrunken log2 fold change” value was 0.381.

With RRIRERPPRLPRPRPRPITNPRP, the “shrunken log2 fold change” value was -0.409.

In the case of RRIRNRPPRLPRPRPRPNLTPRP, the “shrunken log2 fold change” value was -0.335.

With RRIRARPPRLPRPRPRPLCFPRP, the “shrunken log2 fold change” value was 0.195.

With RRIRTRPPRLPRPRPRPNIAPRP, the “shrunken log2 fold change” value is -0.239.

As to RRIRRRPPRLPRPRPRPMAGPRP, the “shrunken log2 fold change” value was 0.111.

In the case of RRIRKRPPRLPRPRPRPIEIPRP, the “shrunken log2 fold change” value is -0.0122.

On to RRIRCRPPRLPRPRPRPMYTPRP, for which the “shrunken log2 fold change” value is -0.551.

Regarding RRIRTRPPRLPRPRPRPMIEPRP, the “shrunken log2 fold change” value was -0.244.

Regarding RRIRWRPPRLPRPRPRPEMNPRP, the “shrunken log2 fold change” value is 0.753.

Turning to RRIRPRPPRLPRPRPRPDQDPRP, the “shrunken log2 fold change” value is 0.0461.

Take RRIRRRPPRLPRPRPRPNSWPRP: the “shrunken log2 fold change” value is -0.0571.

On to RRIRWRPPRLPRPRPRPECIPRP, for which the “shrunken log2 fold change” value was 0.872.

In the case of RRIRRRPPRLPRPRPRPTQFPRP, the “shrunken log2 fold change” value stood at 0.384.

As for RRIRCRPPRLPRPRPRPAMWPRP, the “shrunken log2 fold change” value stood at 0.295.

RRIRGRPPRLPRPRPRPKAPPRP: the “shrunken log2 fold change” value turned out to be 0.855.

In the case of RRIRERPPRLPRPRPRPRVIPRP, the “shrunken log2 fold change” value was 0.0506.

For RRIRIRPPRLPRPRPRPKPPPRP, the “shrunken log2 fold change” value worked out at 0.269.

In the case of RRIRPRPPRLPRPRPRPMAKPRP, the “shrunken log2 fold change” value was 0.646.

Regarding RRIRERPPRLPRPRPRPEAAPRP, the “shrunken log2 fold change” value came to 0.575.

As for RRIRLRPPRLPRPRPRPAWVPRP, the “shrunken log2 fold change” value was -0.0218.

For the sequence RRIRRRPPRLPRPRPRPVAGPRP, the “shrunken log2 fold change” value is 0.453.

For the sequence RRIRFRPPRLPRPRPRPAMYPRP, the “shrunken log2 fold change” value is -0.246.

RRIRQRPPRLPRPRPRPYFCPRP: the “shrunken log2 fold change” value is -0.396.

With RRIRLRPPRLPRPRPRPIRWPRP, the “shrunken log2 fold change” value was -0.241.

Take RRIRLRPPRLPRPRPRPQIPPRP: the “shrunken log2 fold change” value was -0.273.

Turning to RRIRWRPPRLPRPRPRPNIGPRP, the “shrunken log2 fold change” value is 0.138.

On to RRIRERPPRLPRPRPRPNAQPRP, for which the “shrunken log2 fold change” value turned out to be 0.138.

For RRIRRRPPRLPRPRPRPFEWPRP, the “shrunken log2 fold change” value was -0.0864.

As for RRIRDRPPRLPRPRPRPWNIPRP, the “shrunken log2 fold change” value turned out to be 0.0629.

As to RRIRNRPPRLPRPRPRPREMPRP, the “shrunken log2 fold change” value was found to be 0.0274.

For RRIRHRPPRLPRPRPRPYITPRP, the “shrunken log2 fold change” value was -1.23.

Consider RRIRHRPPRLPRPRPRPKICPRP, for which the “shrunken log2 fold change” value stood at 0.0596.

RRIRVRPPRLPRPRPRPFFNPRP: the “shrunken log2 fold change” value is -0.32.

As for RRIRKRPPRLPRPRPRPLCPPRP, the “shrunken log2 fold change” value is -0.145.

For the sequence RRIRERPPRLPRPRPRPRSLPRP, the “shrunken log2 fold change” value was -0.0254.

Take RRIRKRPPRLPRPRPRPWSRPRP: the “shrunken log2 fold change” value is -0.0012.

Turning to RRIRIRPPRLPRPRPRPSNRPRP, the “shrunken log2 fold change” value was -0.139.

Regarding RRIRFRPPRLPRPRPRPTRAPRP, the “shrunken log2 fold change” value was 0.825.

Take RRIRHRPPRLPRPRPRPMSEPRP: the “shrunken log2 fold change” value is 0.0594.

As to RRIRTRPPRLPRPRPRPLAHPRP, the “shrunken log2 fold change” value is -0.256.

Turning to RRIRARPPRLPRPRPRPPMIPRP, the “shrunken log2 fold change” value is -0.172.

As to RRIRLRPPRLPRPRPRPPMIPRP, the “shrunken log2 fold change” value is -0.0218.

Take RRIRIRPPRLPRPRPRPIKLPRP: the “shrunken log2 fold change” value is -0.289.

Take RRIRYRPPRLPRPRPRPSVYPRP: the “shrunken log2 fold change” value is -0.888.

With RRIRARPPRLPRPRPRPRTNPRP, the “shrunken log2 fold change” value turned out to be 0.329.

As for RRIRQRPPRLPRPRPRPWHPPRP, the “shrunken log2 fold change” value was -0.0543.

As for RRIRCRPPRLPRPRPRPGLEPRP, the “shrunken log2 fold change” value came to 0.203.

Regarding RRIRSRPPRLPRPRPRPQSAPRP, the “shrunken log2 fold change” value came out at 0.108.

Regarding RRIRTRPPRLPRPRPRPPHIPRP, the “shrunken log2 fold change” value is -0.471.

RRIRYRPPRLPRPRPRPSTTPRP: the “shrunken log2 fold change” value was -0.717.

With RRIRHRPPRLPRPRPRPVFIPRP, the “shrunken log2 fold change” value is -0.493.

Turning to RRIRDRPPRLPRPRPRPYEKPRP, the “shrunken log2 fold change” value was -0.191.

With RRIRIRPPRLPRPRPRPQPAPRP, the “shrunken log2 fold change” value amounted to 0.213.

In the case of RRIRQRPPRLPRPRPRPVDFPRP, the “shrunken log2 fold change” value came out at 0.0196.

As to RRIRARPPRLPRPRPRPAWRPRP, the “shrunken log2 fold change” value was 0.649.

With RRIRVRPPRLPRPRPRPDFVPRP, the “shrunken log2 fold change” value was -0.0423.

On to RRIRWRPPRLPRPRPRPRDIPRP, for which the “shrunken log2 fold change” value was -0.244.

With RRIRFRPPRLPRPRPRPLRGPRP, the “shrunken log2 fold change” value was found to be 0.607.

RRIRERPPRLPRPRPRPNVEPRP: the “shrunken log2 fold change” value turned out to be 0.0609.

Turning to RRIRVRPPRLPRPRPRPDCEPRP, the “shrunken log2 fold change” value was -0.0964.

For the sequence RRIRYRPPRLPRPRPRPVIGPRP, the “shrunken log2 fold change” value was -0.661.

As for RRIRNRPPRLPRPRPRPNSAPRP, the “shrunken log2 fold change” value worked out at 0.026.

As to RRIRNRPPRLPRPRPRPMCMPRP, the “shrunken log2 fold change” value was -0.106.

RRIRRRPPRLPRPRPRPQGPPRP: the “shrunken log2 fold change” value is 0.206.

For the sequence RRIRGRPPRLPRPRPRPSMSPRP, the “shrunken log2 fold change” value was 0.453.

Regarding RRIRTRPPRLPRPRPRPNFIPRP, the “shrunken log2 fold change” value was -0.457.

Regarding RRIRDRPPRLPRPRPRPKGQPRP, the “shrunken log2 fold change” value was found to be 0.116.

Regarding RRIRKRPPRLPRPRPRPWCVPRP, the “shrunken log2 fold change” value is -0.00029.

For the sequence RRIRRRPPRLPRPRPRPEVQPRP, the “shrunken log2 fold change” value was -0.00368.

For the sequence RRIRFRPPRLPRPRPRPVCQPRP, the “shrunken log2 fold change” value was found to be 0.109.

RRIRYRPPRLPRPRPRPLRAPRP: the “shrunken log2 fold change” value turned out to be 0.669.

Turning to RRIRMRPPRLPRPRPRPNMRPRP, the “shrunken log2 fold change” value is 1.6.

As for RRIRARPPRLPRPRPRPICNPRP, the “shrunken log2 fold change” value amounted to 0.176.

On to RRIRTRPPRLPRPRPRPWMCPRP, for which the “shrunken log2 fold change” value stood at 0.0404.

For the sequence RRIRPRPPRLPRPRPRPVEGPRP, the “shrunken log2 fold change” value came out at 0.0448.

As to RRIRSRPPRLPRPRPRPNPLPRP, the “shrunken log2 fold change” value turned out to be 0.182.

RRIRGRPPRLPRPRPRPSSLPRP: the “shrunken log2 fold change” value was -0.252.

Consider RRIRFRPPRLPRPRPRPCAEPRP, for which the “shrunken log2 fold change” value was found to be 0.111.

Turning to RRIRTRPPRLPRPRPRPKDVPRP, the “shrunken log2 fold change” value was -0.0302.

For RRIRTRPPRLPRPRPRPPKPPRP, the “shrunken log2 fold change” value was 0.304.

Turning to RRIRHRPPRLPRPRPRPTAIPRP, the “shrunken log2 fold change” value was -0.183.

For the sequence RRIRLRPPRLPRPRPRPGCYPRP, the “shrunken log2 fold change” value is -0.115.

In the case of RRIRARPPRLPRPRPRPSMNPRP, the “shrunken log2 fold change” value is -0.032.

For the sequence RRIRWRPPRLPRPRPRPKVYPRP, the “shrunken log2 fold change” value was -0.0533.

Turning to RRIRFRPPRLPRPRPRPMMCPRP, the “shrunken log2 fold change” value is -0.139.

Consider RRIRARPPRLPRPRPRPDSTPRP, for which the “shrunken log2 fold change” value is -0.0804.

Turning to RRIRIRPPRLPRPRPRPKNMPRP, the “shrunken log2 fold change” value was -0.577.

RRIRPRPPRLPRPRPRPTIQPRP: the “shrunken log2 fold change” value was -0.101.

RRIRFRPPRLPRPRPRPLWMPRP: the “shrunken log2 fold change” value is -0.0523.

Regarding RRIRNRPPRLPRPRPRPGTEPRP, the “shrunken log2 fold change” value is -0.145.

With RRIRHRPPRLPRPRPRPFINPRP, the “shrunken log2 fold change” value was -0.205.

Take RRIRTRPPRLPRPRPRPGYSPRP: the “shrunken log2 fold change” value was 1.78.

In the case of RRIRERPPRLPRPRPRPMMEPRP, the “shrunken log2 fold change” value was -0.0582.

With RRIRHRPPRLPRPRPRPIRVPRP, the “shrunken log2 fold change” value was -0.361.

In the case of RRIRRRPPRLPRPRPRPSIQPRP, the “shrunken log2 fold change” value was -0.0217.

In the case of RRIRVRPPRLPRPRPRPWFLPRP, the “shrunken log2 fold change” value is -0.386.

Turning to RRIRKRPPRLPRPRPRPQPNPRP, the “shrunken log2 fold change” value is 0.159.

As to RRIRLRPPRLPRPRPRPLQQPRP, the “shrunken log2 fold change” value amounted to 0.0442.

Take RRIRNRPPRLPRPRPRPYLWPRP: the “shrunken log2 fold change” value was -0.23.

For the sequence RRIRMRPPRLPRPRPRPDKMPRP, the “shrunken log2 fold change” value amounted to 0.323.

As for RRIRPRPPRLPRPRPRPALEPRP, the “shrunken log2 fold change” value is 0.313.

As to RRIRLRPPRLPRPRPRPFWIPRP, the “shrunken log2 fold change” value is -0.283.

Regarding RRIRYRPPRLPRPRPRPNNPPRP, the “shrunken log2 fold change” value is -0.359.

For the sequence RRIRMRPPRLPRPRPRPNKFPRP, the “shrunken log2 fold change” value stood at 0.0721.

Consider RRIRKRPPRLPRPRPRPKCNPRP, for which the “shrunken log2 fold change” value is -0.0341.

RRIRERPPRLPRPRPRPWPFPRP: the “shrunken log2 fold change” value is -0.0819.

As for RRIRIRPPRLPRPRPRPIYGPRP, the “shrunken log2 fold change” value is -0.000842.

RRIRIRPPRLPRPRPRPDMFPRP: the “shrunken log2 fold change” value is -0.17.

Take RRIRRRPPRLPRPRPRPKDIPRP: the “shrunken log2 fold change” value is -0.193.

For the sequence RRIRYRPPRLPRPRPRPARSPRP, the “shrunken log2 fold change” value came out at 0.134.

As for RRIRCRPPRLPRPRPRPSTNPRP, the “shrunken log2 fold change” value is -0.911.

As to RRIRGRPPRLPRPRPRPQDVPRP, the “shrunken log2 fold change” value is 0.0766.

As for RRIRQRPPRLPRPRPRPGSGPRP, the “shrunken log2 fold change” value worked out at 0.135.

Values taken from the supplement of paper PMC9112550, “Optimization of the antimicrobial peptide Bac7 by deep mutational scanning” (BMC Biology, 2022).
